Bounds are passed on as bounds.

The series concerns Smc5/6 holo-complex, Cy3-labelled (8 subunits) (Saccharomyces cerevisiae (expressed in W303-1a)). As to the kind of experiment: single-molecule optical tweezers with confocal fluorescence, lifetime. The note with it: biotin at the two ends, Single-molecule buffer not given in the material (20 nM Cy3-Smc5/6 and 2 mM ATP in Fig. 6b; ~5 or ~60 pN), entrapment: 10 mM HEPES-KOH pH 7.5, 150 mM KAc.

Substance “lambda DNA tether, dsDNA (low force ~5 pN, or dsDNA regions at high force)” gave a binding signal of 76 s.
On to “lambda DNA tether, ss-dsDNA junctions at high force (~60 pN)”, for which the binding signal (5 nM Smc5/6 then buffer only, high force) was greater than 290 s.

The values are drawn from publication PMC9684126.
